Test results reported in patent US20260232830A1 (JIANGSU HENGRUI PHARMACEUTICALS, published 2026).
Changes are numbered by the printed parent chain.

B1: ZalH4-9-A (antibody, human IgG1, kappa, V domains shown)
VH: QVQLVESGGGVVQPGRSLRLSCAASGFTFSTYGMHWVRQAPGKGLEWVAVIWDDGSYKYYGDSVKGRFTISRDNSKNTLYLQMNSLRAEDTAVYYCARDGVTMVRGVMKDYFDYWGQGTLVTVSS
VL: DIQLTQSPSSLSASVGDRVTITCRASQDISSALVWYQQKPGKAPKLLIYDASSLESGVPSRFSGSESGTDFTLTISSLQPEDFATYYCQQFNSYPLTFGGGTKVEIKR
modifications: compound 9-A coupled to reduced cysteines of the antibody (chains and sites not stated), average DAR n=5.94
notes: also called EGFR monoclonal antibody ADC
B2: ZalH4 (antibody, human IgG1, kappa, V domains shown)
VH: B1 VH
VL: B1 VL
notes: anti-EGFR zalutumumab variant, human IgG1; also called EGFR monoclonal antibody ZalH4
B3: ChiM4 (antibody, human IgG1, kappa, V domains shown)
VH: QVQLQQSGAELARPGASVKLSCKASGYSFTTYGVPWVKQRTGQGLEWIGDIYPRSGNTYYNEKFKGKATLTADKSSDTVFMELRSLSSEDSAVYFCAREDYDNYPYALDYWGQGTSVTVSS
VL: EIVLTQSPAIIAASPGEKVTITCSASSSVFNMNWYQQKPGSSPKIWIYDISKLASGVPGRFSGSGSGTSFSLTINSMEAEDVGTYYCQQRSFYPPTFGGGTKVEIKR
notes: murine variable regions on human IgG1 constant regions; also called chimeric antibody of M4
B4: ChiM6 (antibody, human IgG1, kappa, V domains shown)
VH: QVQLQQSGAELMKPGASVKLSCKATGYRFIPYWIEWIKERPGHGLEWIGEILPGTGRTNYNEKFKGKATFTADTSSNTAYMQLSSLTTEDSAIYYCARYGDDTSGGYYAVDYWGQGTSVTVSS
VL: DIVMTQSSASLAMSLGQRATISCRASESVNILGTNLIHWYQQKPGQPPKLLIYHASNLETGVPARFSGSGSRTDFTLTIDPVEEDDVAIYYCLQSRKIPWTFGGGTKLEIKR
notes: murine variable regions on human IgG1 constant regions; also called chimeric antibody of M6
B5: ChiF4-18 (antibody, human IgG1, kappa, V domains shown)
VH: EVQLQQSGAELVRPGSSVKMSCKTSGYTFTSYGINWVKQRPGQGLEWIGYIYLGSDYTEYNEKFKGKATLTSDTTSSTAYMQLSSLTSEDSAIYFCARSAGSLFAYWGQGTLVTVSA
VL: DIQLTQSPSSLSASLGERVSLTCRASQDIGITLNWLQQEPDGTIKRLIYATSSLDSGVPKRFSGSRSGSDYSLTISSLESEDFVDYYCLQYASSPYTFGGGTKLEIKR
notes: murine variable regions on human IgG1 constant regions; also called chimeric antibody of F4-18
B6: ChiF4-1 (antibody, human IgG1, kappa, V domains shown)
VH: QIQLQQSGPELVKPGASVKISCKASGYTFTDNYINWVKQRPGQGLEYIGWIYPGSGNNKFNEKFKGKATLTVDTSSRTAFMQLSSLTFEDSAVYFCARDYPFPSYHYGMDYWGQGTSVTVSS
VL: QILLTQSPAIMSASPGERVTITCSASSSVSYIHWFQQKPGTSPKLWIYSTSNLASGVPPRFSGSGSGTSFSLTVSRMEAEDAATYYCQQRSSYPPTFGGGTKLEIKR
notes: murine variable regions on human IgG1 constant regions; also called chimeric antibody of F4-1
B7: M4 (antibody of hybridoma 17F3) (antibody, V domains shown)
VH: B3 VH
VL: EIVLTQSPAIIAASPGEKVTITCSASSSVFNMNWYQQKPGSSPKIWIYDISKLASGVPGRFSGSGSGTSFSLTINSMEAEDVGTYYCQQRSFYPPTFGGGTKVEIK
notes: murine antibody tested as hybridoma supernatant; also called hybridoma supernatant 17F3
B8: F4-18 (antibody of hybridoma 36G9) (antibody, V domains shown)
VH: B5 VH
VL: DIQLTQSPSSLSASLGERVSLTCRASQDIGITLNWLQQEPDGTIKRLIYATSSLDSGVPKRFSGSRSGSDYSLTISSLESEDFVDYYCLQYASSPYTFGGGTKLEIK
notes: murine antibody tested as hybridoma supernatant; also called hybridoma supernatant 36G9
B9: F4-1 (antibody of hybridoma 3H6) (antibody, V domains shown)
VH: B6 VH
VL: QILLTQSPAIMSASPGERVTITCSASSSVSYIHWFQQKPGTSPKLWIYSTSNLASGVPPRFSGSGSGTSFSLTVSRMEAEDAATYYCQQRSSYPPTFGGGTKLEIK
notes: murine antibody tested as hybridoma supernatant; also called hybridoma supernatant 3H6
B10: ZalH2 (antibody, human IgG1, kappa, V domains shown)
VH: B1 VH with D53E, V101I
VL: B1 VL
notes: anti-EGFR zalutumumab variant, human IgG1
B11: ZalH12 (antibody, human IgG1, kappa, V domains shown)
VH: B1 VH with Y57N, V101I
VL: B1 VL
notes: as for B10
B12: ZalH9 (antibody, human IgG1, kappa, V domains shown)
VH: B1 VH with T31S
VL: B1 VL
notes: as for B10
B13: ZalH3 (antibody, human IgG1, kappa, V domains shown)
VH: B1 VH with V101L
VL: B1 VL
notes: as for B10
B14: ZalH10 (antibody, human IgG1, kappa, V domains shown)
VH: B1 VH with T31S, V101A
VL: B1 VL
notes: as for B10
B15: ZalH8 (antibody, human IgG1, kappa, V domains shown)
VH: B1 VH with T31S, V101L
VL: B1 VL
notes: as for B10
B16: ZalH7 (antibody, human IgG1, kappa, V domains shown)
VH: B1 VH with T31S, D53E, V101I
VL: B1 VL
notes: as for B10
B17: ZalH13 (antibody, human IgG1, kappa, V domains shown)
VH: B1 VH with T31S, G33A, V101I
VL: B1 VL
notes: as for B10
B18: ZalH14 (antibody, human IgG1, kappa, V domains shown)
VH: B1 VH with D53Y, Y57N, G61A, V101I
VL: B1 VL
notes: as for B10
B19: ZalH5 (antibody, human IgG1, kappa, V domains shown)
VH: B1 VH with V101A
VL: B1 VL
notes: as for B10
B20: M4H1L1-ZalH′ (bispecific antibody, human IgG1, kappa)
heavy: not shown
light: DIQMTQSPSSLSASVGDRVTITCSASSSVFNMNWYQQKPGKSPKLWIYDISKLASGVPSRFSGSGSGTDFTLTISSLQPEDFATYYCQQRSFYPPTFGGGTKVEIKRTVAAPSVFIFPPSDEQLKSGTASVVCLLNNFYPREAKVQWKVDNALQSGNSQESVTEQDSKDSTYSLSSTLTLSKADYEKHKVYACEVTHQGLSSPVTKSFNRGEC
chain 1: not shown
chain 2: DIQLTQSPSSLSASVGDRVTITCRASQDISSALVWYQQKPGKAPKLLIYDASSLESGVPSRFSGSESGTDFTLTISSLQPEDFATYYCQQFNSYPLTFGGGTKVEIKGGGGSSGAPRFLTRPKASVVSVGKDATLSCQIVGNPFPQVSWEKDKQPVTAGVRFRLAQDGDLYRLKILDLQLSDSGQYVCRARNAHGEAFACLGLQVDAEA
notes: 1:1 format: MUC1 Fab arm with Fc knob; EGFR arm VH-linker-Titin-Fc hole paired with VL-linker-Obscurin; also called anti-EGFR-MUC1 bispecific antibody
B21: M4H1L1-ZalH10 (bispecific antibody, human IgG1, kappa)
heavy: not shown
light: B20 light
chain 1: not shown
chain 2: B20 chain 2
notes: as for B20
B22: M4H1L1-ZalH8 (bispecific antibody, human IgG1, kappa)
heavy: not shown
light: B20 light
chain 1: not shown
chain 2: B20 chain 2
notes: as for B20
B23: M4H1L1-ZalH13 (bispecific antibody, human IgG1, kappa)
heavy: not shown
light: B20 light
chain 1: not shown
chain 2: B20 chain 2
notes: as for B20

What follows are binders tested against T1, human EGFR as expressed on tumour cell lines (HCC827, T47D, HPAC) (human, UniProt P00533 25-1210) (assay: FACS, HPAC).
T1 construct: whole, on cells; the cell line is named under assay; also called HCC827 cells; T47D cells
For B1, the Emax was 14400. In the case of B2, the Emax is reported as 13000.

Each binder was assayed against T1, human EGFR as expressed on tumour cell … (assay: FACS, HCC827).
Work on B1 yielded an Emax of 31700. Binder B2 has an Emax of 37600.

The binders below were run against T2, cyno MUC1-C on stably transfected CHOK1 cells (cyno) (assay: FACS, CHOK1-cyno-MUC1-C).
T2 construct: domain: MUC1-C; also called CHOK1-cyno-MUC1-C cells; Monkey MUC1-CT
B3 was tested, and the Emax was 79500. Work on B4 yielded an Emax of 70900. B5 gave an Emax of 79800. B6 gave an Emax of 41700.

What follows are binders tested against T3, MUC1-C-L-6×His (His-tagged human MUC1-C protein extracellular domain) (human, UniProt P15941 961-1152) (assay: ELISA, coated antigen, hybridoma supernatant).
T3 construct: template human MUC1 UniProt P15941; expressed in 293 cells; also called hMUC1-C-L-his; MUC1-C-L-His
B7 showed an OD450 nm of 1.9. B8 was tested, and the OD450 nm was 2.05. In the case of B9, the OD450 nm is reported as 2.33.

The binders below were run against T4, human EGFR-His antigen (human, UniProt P00533 25-645) (assay: SPR Biacore 8K, antibody on Protein A chip, 1:1 fit).
T4 construct: also called hEGFR-His
B10 showed a Kd of 92.9 nM, a koff of 0.00812 s⁻¹ and a kon of 87400 M⁻¹ s⁻¹. With B11 the Kd was 120 nM, the koff was 0.0144 s⁻¹ and the kon was 120000 M⁻¹ s⁻¹. Binder B12 has a Kd of 51.6 nM, a koff of 0.00234 s⁻¹ and a kon of 45400 M⁻¹ s⁻¹. B13 showed a Kd of 302 nM, a koff of 0.0243 s⁻¹ and a kon of 80500 M⁻¹ s⁻¹. With B14 the Kd was 133 nM, the koff was 0.0174 s⁻¹ and the kon was 131000 M⁻¹ s⁻¹. B15 was tested, and the Kd was 483 nM, the koff was 0.0369 s⁻¹ and the kon was 76500 M⁻¹ s⁻¹. B16 showed a Kd of 95.7 nM, a koff of 0.00761 s⁻¹ and a kon of 79500 M⁻¹ s⁻¹. In the case of B2, the Kd is reported as 44.3 nM. B17 was tested, and the Kd was 1.96 nM, the koff was 0.000187 s⁻¹ and the kon was 95500 M⁻¹ s⁻¹. Binder B18 has a Kd of 210 nM, a koff of 0.0275 s⁻¹ and a kon of 131000 M⁻¹ s⁻¹. In the case of B19, the Kd is reported as 96.4 nM, the koff is reported as 0.0125 s⁻¹ and the kon is reported as 129000 M⁻¹ s⁻¹.

Target: T4, human EGFR-His antigen
Experiment: as above
Remark: another data set of the same source
B20 showed a Kd of 4.13 nM, a koff of 0.00072 s⁻¹ and a kon of 174000 M⁻¹ s⁻¹. B21 showed a Kd of 56.4 nM, a koff of 0.0113 s⁻¹ and a kon of 201000 M⁻¹ s⁻¹. B22 gave a Kd of 162 nM, a koff of 0.0275 s⁻¹ and a kon of 171000 M⁻¹ s⁻¹. With B23 the Kd was 0.163 nM, the koff was 4.57e-05 s⁻¹ and the kon was 280000 M⁻¹ s⁻¹.

Each binder was assayed against T4, human EGFR-His antigen (assay: SPR Biacore T200, antibody on Protein A chip, 1:1 fit).
In the case of B2, the Kd is reported as 33 nM.

The binders below were run against T5, cynomolgus EGFR-his (Cat. #90285-C08H, Sino Biological) (cynomolgus, UniProt A0A2K5WK39 25-645) in the same assay as above.
T5 construct: bought reagent; also called Cyno EGFR-His
In the case of B2, the Kd is reported as 477 nM.
